Sequences and labels used below:
B2: FKB-6 (full-length) (natural protein, C. elegans, UniProt O45418 1-431, looked up)
chain: MSGEKIDITPKKDGGVLKLIKKEGQGVVKPTTGTTVKVHYVGTLENGTKFDSSRDRGDQFSFNLGRGNVIKGWDLGVATMTKGEVAEFTIRSDYGYGDAGSPPKIPGGATLIFEVELFEWSAEDISPDRDGTILRTIIVEGSKNSFPNDTSKVLAHCVGTYQGTEFYNREVNFHIGEGSEEGLPEGVERALRRFQLGEKSKIEIRGHKYTYGNSPPAGSNIPVNATLEFTIFLKEFEKVPATWEMTAEEKLDAAKQAKDRGTMYLQKGNLKLAYNKYKRAEEVLEYEKSTDPEKMAERETILNGAYLNLSLVCSKQNEQLECIKWCDKVLETKPGNVKALYRKATALLTMNEVRDAMKLFEKIVEVEPENKAAAQQIIVCRNTIREQNERDKKRFKNLFAKISTEEDKPTNTVEDEDEIVASTSGSSTSNA
notes: FKB-6, C. elegans large PPIase, homolog of human Fkbp51/Fkbp52; also called large PPIase FKB-6; source: E. coli BL21 (DE3) cod+, purified (HisTrap, gel filtration)

The target of the assay “FKB-6 (full-length)” is B2. In words: native MS; LILBID-MS of the BS3-crosslinked sample and of non-crosslinked mixtures, sB-Raf:CDC-37:FKB-6:HSP-90 = 1:1:1:1 or as indicated; 25 mM Tris, 20 mM KCl, pH 7.5. Conditions: both partners purified.
Another assay addresses T1, nematode HSP-90 (C. elegans, UniProt Q18688 1-702).
T1 construct: HSP-90, C. elegans (nematode) Hsp90; also called HSP-90 dimer; source: E. coli BL21 (DE3) cod+, purified (HisTrap, gel filtration)
Described as above. Conditions: both partners purified.

B1: nematode CDC-37 (natural protein, C. elegans, UniProt O02108 1-370, looked up)
chain: MPIDYSKWKDIEVSDDEDDTHPNIDTPSLFRWRHQARLERMAEKKMEQEKIDKEKGTTSKKMEELEKKLAAADVTDKSDIQKQIDEVKAQEEAWRKKEAELEEKERLEPWNVDTIGHEAFSTSRINKITEKKPQAPKTDEEDTHAMSTFFETHESLLEKMAVLKNGAKSTELFLAEHPHMASEYTANWLTIEALNAAIDFNEEKMKTMAEQCIIIQYLLELSKSLNAVATNTTVQKQFFKKFEAAEPVYMKHYQDEVKAFEDRLRTRAQTKRDAAMEEAEAEEKAERMKSAPGGIDPQEVFEQLPEEMRKCFEAHDIEALKGVAQKMDEEVFKYHFDRCIASGLWVPGKADDDDDDEEAAPAEEEPTTSS
notes: CDC-37, C. elegans (nematode) Hsp90 cochaperone; source: E. coli BL21 (DE3) cod+, purified (HisTrap, gel filtration)
For B1, the binding result with FKB-6 (full-length) and in the assay with nematode HSP-90 was “binds” each time.
In the case of B2, in the assay with nematode HSP-90, the binding result is given as “binds”.

The values are drawn from paper PMC8196007, “HSP-90/kinase complexes are stabilized by the large PPIase FKB-6” (Scientific Reports, 2021).
